In patent US20240254220A1 (CENTRICSBIO, published 2024):
Numbering of substitutions follows the chain as printed.

Tests used:
[1] = biological target: T1, CD300c antigen (11832-H08H, Sino Biological) (human, UniProt Q08708 21-183); assay: binding ELISA, plate coated with CD300c antigen (8 µg/mL), HRP anti-Fc IgG detection
T1 construct: Bought antigen; also called CD300c protein; CD300 antigen-like family member C
T1 sequence (looked up): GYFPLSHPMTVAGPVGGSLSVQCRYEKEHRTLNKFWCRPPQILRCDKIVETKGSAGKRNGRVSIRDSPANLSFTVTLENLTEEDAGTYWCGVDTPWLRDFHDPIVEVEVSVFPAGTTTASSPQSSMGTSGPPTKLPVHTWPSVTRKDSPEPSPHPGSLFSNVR
Procedure: In order to identify the antigen-binding ability of the anti-CD300c monoclonal antibodies produced in Example 1, binding ELISA was performed. Specifically, a CD300c antigen (11832-H08H, Sino Biological) or a CD300a antigen (12449-H08H, Sino Biological) in a coating buffer (0.1 M sodium carbonate, pH 9.0) was dispensed into an ELISA plate at a concentration of 8 μg/mL per well, followed by incubation at room temperature for 3 hours to allow the antigen to be bound to the plate. The unbound antigens were removed by washing three times using phosphate buffered saline-Tween 20 (PBST), and then 300 μL of PBST supplemented with 5% bovine serum albumin (BSA) was added to each well, followed by incubation at room temperature for 1 hour and then washing using PBST. Then, an anti-CD300c monoclonal antibody was diluted in quadruplicate and added thereto, followed by incubation for 1 hour at room temperature for antigen binding. After 1 hour, washing was performed three times using PBST to remove unbound anti-CD300c monoclonal antibody, and then 4 μg/mL of an antibody for detection (HRP conjugated anti-Fc IgG) was added, followed by incubation again at room temperature for 1 hour. Subsequently, the unbound antibody for detection was removed using PBST, and then TMB solution was added, followed by incubation for 10 minutes for development. Then, 2 N sulfuric acid solution was added to terminate the development reaction, and the absorbance was measured at 450 nm to identify the antibodies specifically binding to the CD300c antigen.

[2] = biological target: T1, CD300c antigen (11832-H08H, Sino …); assay: selection ELISA of Example 1.2, scFv periplasmic extract on coated CD300c antigen
Procedure: In order to select anti-CD300c monoclonal antibodies specifically binding, with high binding affinity, to a CD300c antigen, ELISA was performed using the library pool obtained by the same method as in Example 1.1. More specifically, each of a CD300c antigen and a CD300a antigen in a coating buffer (0.1 M sodium carbonate, pH 9.0) was dispensed into an ELISA plate at a concentration of 5 μg/mL per well, followed by incubation at room temperature for 3 hours, to allow the antigen to bind to the plate. The unbound antigens were removed by washing three times using phosphate buffered saline-Tween 20 (PBST), and then 350 μL of PBST supplemented with 2% bovine serum albumin (BSA) was added to each well, followed by incubation at room temperature for 1 hour and then washing again using PBST. Then, 25 μg of a periplasmic extract containing scFv obtained by the same method as in Example 1.1 was added thereto, followed by incubation for 1 hour at room temperature for antigen binding. After 1 hour, the unbound scFv was removed by washing three times using PBST, and then 4 μg/mL of an antibody for detection was added, followed by incubation again at room temperature for 1 hour. Subsequently, the unbound antibodies for detection were removed using PBST, and then HRP-conjugated anti-rabbit IgG was added, followed by incubation at room temperature for 1 hour. The unbound antibodies were removed again using PBST. Subsequently, 3,3′,5,5′-tetramethylbenzidine (TMB) solution was added, followed by incubation for 10 minutes for development. Then, 2 N sulfuric acid solution was added to terminate the development reaction, and the absorbance was measured at 450 nm to identify the antibodies specifically binding to the CD300c antigen.

B1: CK3 (antibody, V domains shown)
VH: RVQLLESGGGLVQPGGSLRLSCAASGFTFSSYAISWVRQAPGKGLEWVSATSGSGRATYYADSVKGRFTISRDNSKNTLYLQMNSLRAEDTAVYYCARDTWWEGYFDLWGQGTLVTVSS
VL: EIVLTQSPGTLSLSPGERATLSCQASHISTHLNWYQQKPGQAPRLLIYGASSRATGIPDRFSGSGSGTDFTLTISRLEPEDFAVYYCQQYNTYPPTFGQGTKVEIK
notes: also called anti-CD300c monoclonal antibody CK3; CB301 antibody CK3
- EC50 [1]: 0.793 µg/mL

B2: CB301_H3L1_F4 (antibody, V domains shown)
VH: EVQLLESGGGLVQPGGSLRLSCAASGFTFSGYAMSWVRQAPGKGLEWVSAISGSGGSTYYADSVKGRFTISRDNSKNTLYLQMNSLRAEDTAVYYCARSPSGLFDYWGQGTLVTVSS
VL: QSVLTQPPSASGTPGQRVTISCGGNNIGSKRVHWYQQLPGTAPKLLIYNTSNKHSGVPDRFSGSKSGTSASLAISGLRSEDEADYYCSSYLQQHSLFGGGTKLTVL
- binding result [2]: binds

B3: CL9 (antibody, V domains shown)
VH: B2 VH with G31S, A33Y, M34W, S99I, P100D, S101V, G102Y, L103G, Y106I
VL: QSVLTQPPSASGTPGQRVTISCSGSTSNIGTNYVYWYQQLPGTAPKLLIYDNNNRPSGVPDRFSGSKSGTSASLAISGLRSEDEADYYCQTWDSSTDVVFGGGTKLTVL
notes: also called anti-CD300c monoclonal antibody CL9; CB301 antibody CL9
- EC50 [1]: 0.094 µg/mL

B4: CB301_H3L1_A10 (antibody, V domains shown)
VH: EVQLLESGGGLVQSGGSLRLSCAASGFTFSSYGMHWVRQAPGKGLEWVSAISGSGGSTYYADSVKGRFTISRDNSKNTLYLQMNSLRAEDTAVYYCVRGYGAMDVWGQGTLVTVSS
VL: QSVLTQPPSASGTPGQRVTISCTRSSGSIASNYVQWYQQLPGTAPKLLIYRNNQRPSGVPDRFSGSKSGTSASLAISGLRSEDEADYYCSSYTTSSTLVFGGGTKLTVL
- binding result [2]: binds

B5: SK11 (antibody, V domains shown)
VH: B4 VH with E1R, S14P, S31T, V97A, Y100L, G101S, A102G, M103L, V105Y
VL: EIVLTQSPGTLSLSPGERATLSCRSSQGITNYLAWYQQKPGQAPRLLIYDASNRATGIPDRFSGSGSGTDFTLTISRLEPEDFAVYYCQQSYSTPLTFGQGTKVEIK
notes: also called anti-CD300c monoclonal antibody SK11; CB301 antibody SK11
- EC50 [1]: 0.052 µg/mL

B6: CB301_H3L1_A12 (antibody, V domains shown)
VH: B4 VH with S14P, G33A, E89K, V97A, R98S, A102L
VL: QSVLTQPPSASGTPGQRVTISCTGTSSDVGNYNLVSWYQQLPGTAPKLLIYSNNQRPSGVPDRFSGSKSGTSASLAISGLRSEDEADYYCSSYTGSNALLFGGGTKLTVL
- binding result [2]: binds

B7: CK2 (antibody, V domains shown)
VH: B4 VH with S14P, G56T, T58I, V97A, Y100G, G101T, M103F, V105Y
VL: B5 VL with S25A, G28R, I29S, T30D, L96F, I106T
notes: also called anti-CD300c monoclonal antibody CK2; CB301 antibody CK2
- EC50 [1]: 0.033 µg/mL

B8: SK13 (antibody, V domains shown)
VH: RVQLLESGGGLVQPGGSLRLSCAASGFTFSDYAMSWVRQAPGKGLEWVSSISSSSSYIYYTDSVKGRFTISRDNSKNTLYLQMNSLRAEDTAVYYCARGGYGFDYWGQGTLVTVSS
VL: EIVLTQSPGTLSLSPGERATLSCRASQSISSYLNWYQQKPGQAPRLLIYSASSRPQGIPDRFSGSGSGTDFTLTISRLEPEDFAVYYCQQYDDLPFTFGQGTKVEIK
notes: also called anti-CD300c monoclonal antibody SK13; CB301 antibody SK13
- EC50 [1]: 0.044 µg/mL

B9: CB301_H3L1_E6 (antibody, V domains shown)
VH: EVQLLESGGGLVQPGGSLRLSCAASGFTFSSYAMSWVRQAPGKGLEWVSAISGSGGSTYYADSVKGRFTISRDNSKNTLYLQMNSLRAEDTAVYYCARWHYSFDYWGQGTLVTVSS
VL: QSVLTQPPSASGTPGQRVTISCRGNNIGSKRVHWYQQLPGTAPKLLIYSYNHRPSGVPDRFSGSKSGTSASLAITGLRSEDEADYYCNTWDDSLEGPVFGGGTKLTVL
- binding result [2]: binds

B10: CL6 (antibody, V domains shown)
VH: EVQLLESGGGLVQPGGSLRLSCAASGFTFSSYGMHWVRQAPGKGLEWVSAISGSGGSTYYADSVKGRFTISRDNSKNTLYLQMNSLRAEDTAVYYCAVSGAGRGFFDYWGQGTLVTVSS
VL: QSVLTQPPSASGTPGQRVTISCSGSSSNIGSNYVYWYQQLPGTAPKLLIYEDNKRPSGVPDRFSGSKSGTSASLAISGLRSEDEADYYCSSYTSSSTVIFGGGTKLTVL
notes: also called anti-CD300c monoclonal antibody CL6; CB301 antibody CL6
- EC50 [1]: 0.148 µg/mL

B11: CK1 (antibody, V domains shown)
VH: EVQLLESGGGLVQPGGSLRLSCAASGFTFSRYAMTWVRQAPGKGLEWVSSMSGTGGTTYYADSVKGRFTISRDNSKNTLYLQMNSLRAEDTAVYYCARGAYGFDHWGQGTLVTVSS
VL: B5 VL with S25A, G28S, T30G, A34N, R54L, A55E, Y92S, S93A, T94I, L96Y
notes: also called anti-CD300c monoclonal antibody CK1; CB301 antibody CK1
- EC50 [1]: 0.056 µg/mL

B12: SK15 (antibody, V domains shown)
VH: RVQLLESGGGLVQPGGSLRLSCAASGFTFSSYAMHWVRQAPGKGLEWVSAINGSGGSTYYADSVKGRFTISRDNSKNTLYLQTNSLRAEDTAVYYCARGLQGFDYWGQGTLVTVSS
VL: B5 VL with R24Q, S25A, G28D, A34N, N53S, R54L, A55E, L96I
notes: also called anti-CD300c monoclonal antibody SK15; CB301 antibody SK15
- EC50 [1]: 14.7 µg/mL

B13: SK16 (antibody, V domains shown)
VH: B12 VH with H35S, Y59L, T83M, L100V, Q101S, Y105S
VL: B5 VL with S25I, G28S, T30S, N31S, A34N, N53L, S93K, L96I
notes: also called anti-CD300c monoclonal antibody SK16; CB301 antibody SK16
- EC50 [1]: 2.42 µg/mL

B14: SK17 (antibody, V domains shown)
VH: EVQLLESGGGLVQPGGSLRLSCAASGFTFSSYYWSWVRQAPGKGLEWVSTITGSGGSTDYANSVKGRFTISRDNSKNTLYLQMNSLRAEDTAVYYCATGGGIFDYWGQGTLVTVSS
VL: B5 VL with R24Q, S25A, G28T, T30S, A34N, S91Y, Y92N, T94Y, L96P, T97S
notes: also called anti-CD300c monoclonal antibody SK17; CB301 antibody SK17
- EC50 [1]: 0.054 µg/mL

B15: SK12 (antibody, V domains shown)
VH: B12 VH with N52S, S57D, Y60H, T83M, A97T, Q101S
VL: EIVLTQSPGTLSLSPGERATLSCRASQSISSYLNWYQQKPGQAPRLLIYDASNRAPGIPDRFSGSGSGTDFTLTISRLEPEDFAVYYCQQSYSIPITFGQGTKVEIKF
notes: also called anti-CD300c monoclonal antibody SK12; CB301 antibody SK12
- EC50 [1]: 0.067 µg/mL

B16: SK14 (antibody, V domains shown)
VH: EVQLLESGGGLVQPGGSLRLSCAASGFTFSNFAIAWVRQAPGKGLEWVSAISGRGTSTYYADSVKGRFTISRDNSKNTLYLQMNSLRAEDTAVYYCARGVSGFDSWGQGTLVTVSS
VL: B5 VL with S25A, G28S, T30S, N31S, Y32H, A51T, L96F
notes: also called anti-CD300c monoclonal antibody SK14; CB301 antibody SK14
- EC50 [1]: 0.065 µg/mL

B17: CL4 (antibody, V domains shown)
VH: RVQLLESGGGLVQPGGSLRLSCAASGFTFGSNYMSWVRQAPGKGLEWVSTISGSGTSTYYADSLKGRFTISRDNSKNTLYLQMNSLRAEDTAVYYCARGMWGMDVWGQGTLVTVSS
VL: QSVLTQPPSASGTPGQRVTISCTGKHRHTVNWYQLLPGTAPKLLIYLDSERPSGVPDRFSGSKSGTSASLAISGLRSEDEADYYCQSYDSSSVVFGGGTKLTVL
notes: also called anti-CD300c monoclonal antibody CL4; CB301 antibody CL4
- EC50 [1]: 0.031 µg/mL

B18: CL5 (antibody, V domains shown)
VH: RVQLLESGGGLVQPGGSLRLSCAASGFTFSSYAMHWVRQAPGKGLEWVSSISGGGYGTYYADSVKGRFTISRDNSKNTLYLQMNSLRAEDTAVYYCARSTVWAFDIWGQGTLVTVSS
VL: QSVLTQPPSASGTPGQRVTISCSGNNIGSKSVHWYQQLPGTAPKLLIYDVSKRPSERPDRFSGSKSGTSASLAISDLRSEDEADYYCQSFDSSGTWIFGGGTKLTVL
notes: also called anti-CD300c monoclonal antibody CL5; CB301 antibody CL5
- EC50 [1]: 0.032 µg/mL
